Reference: the nanobody polyreactivity screen of Harvey et al. (2022)

assay: yeast display, Sf9 membrane polyspecificity reagent, FACS + sequencing; frameworks hold sequencing errors
Method in brief: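 Nanobodies from a synthetic yeast display library (Saccharomyces cerevisiae BJ5465), induced 36–48 hours with galactose, were stained 1 hour at 4 °C with 10% biotinylated, detergent-solubilized Sf9 membrane reagent, enriched on streptavidin microbeads, then FACS-sorted. Anti-HA (expression) and streptavidin (reagent binding) fluorescence set low and high (top ~1%) gates. Polyreactivity labels come from the gate of origin. Genes were colony-PCR amplified, MiSeq 2 × 250 sequenced and filtered by CDR length.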

Sequence	polyreactivity (PSR sort gate)
QVQLVESGGGLVQAGGSLRLSCAASGFIFRHYAMGWYRPAPGKERELVAAITSGGTTYYADSVKGRFTISRDNAKNTVYLQMNSLKPEDTAVYYCNTVYYRPGQDVDYWGQGTQVTVSS	high polyreactivity
QVQLVESGGGLVQAGGSLRLSCAASGFIFRLNAMGWYRQAPGKERELVAAISTYADSMKGRFTISRDNAKNTVYLQMNSLKPEDTAVYYCAKDYTDTYAYRTGFDYWGQGTQVTVSS	low polyreactivity
QVQLVESGGGLVQAGGSLRLSCAASGFIFRLYTMGGYRQAPGKERELVAAISWSGGRTYYADSVKGRFTISRDNAKNTVYLQMNSLKPEDTAVYYCAKDLYLHTYYAYPYRFGSGYYWGQGTQVTVSS	low polyreactivity
QVQLVESGGGLVQAGGSLRLSCAASGFIFRNYAMGWYRQAPGKERELVAAISRRAGSTYYADSVKGRFTISRDNAKNTVYLQMNSLKPEVTAVYYCAADSYWRYYPTKYDYWGQGTQVTVSS	high polyreactivity
QVQLVESGGGLVQAGGSLRLSCAASGFIFRQNAMGWYRQAPGKERELVAAISGSGGRTYYADSVKGRFTISRDTAKNTVYLQMNSLKPEDTAVYYCAAQYVTSRFDYWGQGTQVTVSS	high polyreactivity
QVQLVESGGGLVQAGGSLRLSCAASGFIFRQYAMGWYRQAPGKEMELVAAISSSGGRTYYADSVKGRFTISRDNAKNTVYLQMNSLKPEDTAVSYCNARAWLRVEYGEGYWGQGTQVTVSS	high polyreactivity
QVQLVESGGGLVQAGGSLRLSCAASGFIFRRNAMGWYRQAPGKEREFVAAITWSGGSTYYADSVKGRFTISRDNAKDTVYLQMNSLKPEDTAVYYCAATYSQYWYTKYLNSYPGYDYWGQGTQVTVSS	low polyreactivity
QVQLVESGGGLVQAGGSLRLSCAASGFIFRRNAMGWYRQAPGKEREFVAAITWSGGSTYYADSVKGRFTISRDNAKYTVYLQMNSLKPEDTAVYYCAATYSQYWYTKYLNSYPGYDYWGQGTQVTVSS	low polyreactivity
QVQLVESGGGLVQAGGSLRLSCAASGFIFRRYAMGWSRPAPGNERELVAAITWSGGSTYYADSVKGRFTISRDNAKNTVYLQMNSLKPEDTAVYYCAAVYRQSGDYYSRDYYWGQGTQVTVSS	high polyreactivity
QVQLVESGGGLVQAGGSLRLSCAASGFIFRSNAMGWYRQAPGKEREFVAAISSRGGSTTYADSVKGRFTISRDNAKNTVYLQMNSLKPEDTAVYYCARSLRRFVVAYDYWGQGTQVTVSS	high polyreactivity
QVQLVESGGGLVQAGGSLRLSCAASGFIFRSYDMGWYRQAPGKERELVARISSGGSTYYADSVKGRFTISRDNAKNTVYLQMNSLKPEDTAVYYCNSARPTAAYDYWGQGTQVTVSS	low polyreactivity
QVQLVESGGGLVQAGGSLRLSCAASGFIFRTNAMGWYRQAPGKERELVAAISRSGNTYYADSVKGRFTISRDNAKNTVYLQMNSLKPEDTAVYYCNAGWYGAYRWYRSDYWGQGTQVTVSS	high polyreactivity
QVQLVESGGGLVQAGGSLRLSCAASGFIFRTYAMGWYRQAPGKERELDATITGDGSTNYADSVKGRFTISRDNAKKTVYLQMNSLKPEDTAVYYGSRDVRLSGDYWGQGTQVTVSS	low polyreactivity
QVQLVESGGGLVQAGGSLRLSCAASGFIFRVYAMGWYRQAPGKERELVAAITRAGNTYYADSVKGRFTISRDNAKNTVYLQMNSLKPEDTAVYYCNNYHYWASPMNYWGQGTQVTVSS	high polyreactivity
QVQLVESGGGLVQAGGSLRLSCAASGFIFRVYAMGWYRQAPGKERELVATITYDGGRTYYADSVKGRFTISRDNAKNTVYLQMNSLKPEDTAVFGYWGQGTQVTVSS	low polyreactivity
QVQLVESGGGLVQAGGSLRLSCAASGFIFRWYAMGGYRPAPGKERELVASITRCGSTYYADSVKGRFTISRDNAKNTVYLQMNSLKPEDTAVYYCAVDYLSPKYDYWGHGTQVTVSS	high polyreactivity
QVQLVESGGGLVQAGGSLRLSCAASGFIFRWYAMGWSRQAPGKERELVAAISRGGSTNYADSVKGRFTISRDNAKNTVYLQMISLKPEDTAVYYCNARYVSYSGRYVIGQYVKYDYWGQGTQVTVSS	high polyreactivity
QVQLVESGGGLVQAGGSLRLSCAASGFIFRWYAMGWSRQAPGKERELVAAISSGGSTYYADSVKGRFTISRDNAKNTVYLQMNSLKPEDTAVYYCAVRRYSEGDYWGQGTQVTVSS	high polyreactivity
QVQLVESGGGLVQAGGSLRLSCAASGFIFRWYAMGWYRPAPGKERELVASINWSGSRTNYADSVKGRFTISRDNAKNTVYLQMNSLKPEDTAVYYCNAYGGLQYDYWGQGTQVTVSS	high polyreactivity
QVQLVESGGGLVQAGGSLRLSCAASGFIFRWYAMGWYRQAPGKERELVASINWSGSRTNYADSVKGRFTISRDNAKYTVYLQMNSLKPEDTAVYYCNAYGGLQYDYWGQGTQVSVSS	high polyreactivity
QVQLVESGGGLVQAGGSLRLSCAASGFIFRWYAMGWYRQAPWKERELVASINTDGDSTYYADSVKGRFTISRDNAKNTVYLQMNSLKPEDTAVYYCAADYVGYWWYTSDNYDYWGQGTQVTVSS	high polyreactivity

Sequence	polyreactivity (PSR sort gate)
QVQLVESGGGLVQAGGSLRLSCAASGFIFRWYTLGWYRQAPGKERELVAAISRSGGSTYYADSVKGRFTISRDNAKNTVYLQMNSLKPEDTAVYYCNAYDHPIYRLDYWGQGTQVTVSS	high polyreactivity
QVQLVESGGGLVQAGGSLRLSCAASGFIFRYNAMGWYIQAPGKERELVASIDWSGGSTYYADSVKGGFTISRDNAKITVYLQMNSLKPEDTEVYYCAADTSYWYDYYIDYVGYYYWGQGTQVTVSS	high polyreactivity
QVQLVESGGGLVQAGGSLRLSCAASGFIFRYNAMGWYRQAPGKEREFVAAISQGGASTYYADSVKGRFTISRDNAKNTVYLQMNSLKPEDTAVYYCAREPSIFTPSYDYWGQGTQVTVSS	low polyreactivity
QVQLVESGGGLVQAGGSLRLSCAASGFIFRYNAMGWYRQAPGKEREFVAAISWGGGRTYYADSVKGRFTISRDNAKNTVYLQMNSLKPEDTAVYYCAAVSPHNRYGYKYDYWGQGTQVTVSS	high polyreactivity
QVQLVESGGGLVQAGGSLRLSCAASGFIFRYNTMGWYRQAPGKERELVAAISVSGARTYYADSVKGRFTISRDNAKNTVYLQMNSLKPEDTAVYYCNRRYPFYSRYNNDYWGQGTQVTVSS	high polyreactivity
QVQLVESGGGLVQAGGSLRLSCAASGFIFRYYALGWYRQAPGKERELVAAIDYSGGSTNYADSVKGRFTISRDNAKNTVYLQMNSLKPEDTGVYYCATVSDNRYYYWGQGTQVTVSS	low polyreactivity
QVQLVESGGGLVQAGGSLRLSCAASGFIFRYYAMGWYRHAPGKERELVAAISSGGRTSYADSVKGRFTISRDNAKNTVYLQMNSLKPEDTAVYYCAADSWRGLFYYGNDYWGQGTQVTVSS	high polyreactivity
QVQLVESGGGLVQAGGSLRLSCAASGFIFRYYAMGWYRQAPGKERELVAAIDYSGGSTNYADSVKGRFTISRDNAKNTVYLQMNSLKPEDTAVYYYDYWGQGTQVTVSS	low polyreactivity
QVQLVESGGGLVQAGGSLRLSCAASGFIFRYYAMGWYRQAPGKERELVAAISSGGGTYYADSVKGRFTISRDNAKNTVYLQMNSLKPEDTAVYYCNKASTSYYRFNYWGQGTQVTVSS	high polyreactivity
QVQLVESGGGLVQAGGSLRLSCAASGFIFRYYAMGWYRQAPGKERELVAAISWSGGSTYYADSVKGRFTISRDNAMNTVYLQMNSLKPEDTAVYYCAADRYAILFYAEDYWGQGTQVTVSS	low polyreactivity
QVQLVESGGGLVQAGGSLRLSCAASGFIFRYYAMGWYRQAPGKERELVAAISWSGGTTYYADSVKGRFTISRDNAKNTVYLQMNSLKPEDTAVYYCAARVARISVPYDYWGQGTEVTVSS	low polyreactivity
QVQLVESGGGLVQAGGSLRLSCAASGFIFRYYAMGWYRQAPGKERELVAAITSGGASTYYADSVKGRFTISRDNAKNTVYLQMNSLKPEDTAVYYCAADTSSYSEYDYWGQGTQVTVSS	low polyreactivity
QVQLVESGGGLVQAGGSLRLSCAASGFIFRYYAMGWYRQAPGKERELVARITPRGGRTYYADSVKGRFTISRDNAKNTVYLQMNSLKPEDTAVYYCAAVYPVLDEFGYWGQGTQVTVSS	high polyreactivity
QVQLVESGGGLVQAGGSLRLSCAASGFIFRYYDMGWYRQAPGKERELVAAISWSGCSTYYADSVKGRFTISRDNAKNTVYLQMNSLKPEYTAVYYCAAERYAMLFYAEDYWGQGTQVTVSS	low polyreactivity
QVQLVESGGGLVQAGGSLRLSCAASGFIFRYYTMGWYRQAPVKERELVASITRSGGSTYYADSVKGRFTISRDNGKNTVYLQMNSLKPEDTAVYYCAAVVYLRFRNSYWGQGTQVTVSS	high polyreactivity
QVQLVESGGGLVQAGGSLRLSCAASGFIFSANDMGGYRQAPGKERELVADIDSSGRTNYADSVKGRFTISRDNAKNTVYLQMNSLNPEDTAVYYCATPPDDKGGGYLGYDYWGQGTEVTVSS	low polyreactivity
QVQLVESGGGLVQAGGSLRLSCAASGFIFSFDNAMGWYRQAPGKERELVAAISSGTTTHYADSVKGRFTISRDNAKNTVYLQMNSLKREDTAVYYCAAGTATDVASIGATKDYDYWGQGTQGTVSS	low polyreactivity
QVQLVESGGGLVQAGGSLRLSCAASGFIFSFYVMGWYRQAPGKERELVAAISTSGASTYYADSVKGRFTISRDNAKNTVYLQMNSLKPEDTAVFYCNVVYRYGGYNYWGQGTQVTVSS	high polyreactivity
QVQLVESGGGLVQAGGSLRLSCAASGFIFSGNAMGWYRQAPGKEREFVAAISTSAGTTNYADSVKGRFTISRDNAKNTVYLQMNSLKPEDTAVYYCAARSTRRRIYGYWGQGTQVTVSS	high polyreactivity
QVQLVESGGGLVQAGGSLRLSCAASGFIFSGYAMGWYRQAPGKERELVAAIRWSTGSTYYADSVKGRFTISRDNAKNTVYLQMNSLKPEDTAVYYCNAYRYQWAQSTEYDYWGQGTQVTVSS	high polyreactivity
